Earlier results on 2 sequences are cited in paper PMC10910070.

pKd: −log10 of the molar value.

The test system of this data set is gliadin (wheat, commercial mixture) (wheat). Nature of the data set: not stated (cited value). The note with it: 5 mM Tris pH 7.4, 25 C; 300 uL AuNPs + 200 uL 40 nM aptamer + 200 uL gliadin, then 200 uL NaCl (40 mM in Methods, 37 mM in Fig. 2 legend), 900 uL final.

For orientation: pKd means the Kd on a negative log10 scale, so that one unit is a factor of ten. “CCAGTCTCCCGTTTACCGCGCCTACACATGTCTGAATGCC [Apt-1]”: the pKd was 6.73. With CTACACATGTCTGAATGCC [Apt-2], the pKd was 6.83.
